Data from paper PMC3787745, “Yeast Mnn9 is both a priming glycosyltransferase and an allosteric activator of mannan biosynthesis” (Open Biology, 2013).

Molecular target: T1, ScVan1 (Saccharomyces cerevisiae Van1p glycosyltransferase domain, residues 87-535) (S. cerevisiae, UniProt P23642 87-535)
T1 construct: Van1p, S. cerevisiae S288c, lacking the first 86 amino acid residues (cytoplasmic domain, transmembrane domain and predicted disordered region); glycosyltransferase domain 87-535; Cloned into pNIFTY/MBP (MBP, hexahistidine, TEV site at the N-terminus); the tag was cleaved off with TEV protease; also called ScVan1p; V1; source: E. coli BL21(DE3) pLysS, purified (Ni-IMAC, TEV cleavage, anion …)
T1 sequence (looked up): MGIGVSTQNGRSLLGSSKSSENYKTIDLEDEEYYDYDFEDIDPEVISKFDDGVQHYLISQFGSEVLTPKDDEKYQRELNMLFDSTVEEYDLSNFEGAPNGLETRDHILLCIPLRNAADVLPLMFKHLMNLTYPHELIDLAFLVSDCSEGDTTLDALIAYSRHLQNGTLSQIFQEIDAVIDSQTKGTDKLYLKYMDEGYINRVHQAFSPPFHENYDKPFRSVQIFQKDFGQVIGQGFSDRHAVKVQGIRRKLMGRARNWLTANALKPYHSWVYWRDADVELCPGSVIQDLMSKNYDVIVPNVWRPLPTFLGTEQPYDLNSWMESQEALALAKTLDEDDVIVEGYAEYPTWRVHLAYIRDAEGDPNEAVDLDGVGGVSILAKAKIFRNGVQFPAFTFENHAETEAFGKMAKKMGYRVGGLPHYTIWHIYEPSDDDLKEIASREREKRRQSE
Assay: BLI; Octet RED384; biotinylated ScMnn9 bound at 25 µg/ml to streptavidin sensors; ScVan1 at 0 to 15 µM in buffer C (100 mM HEPES pH 7.5, 5 mM MnCl2, 1 mg/ml BSA, 0.015% BRIJ 35); association 10 min, dissociation 20 min; triplicate, full kinetic fit
Conditions: both partners purified

- Kd: 0.48 µM
- koff: 0.00032 s⁻¹
- kon: 620 M⁻¹ s⁻¹
B1: ScMnn9 (Saccharomyces cerevisiae Mnn9p glycosyltransferase core, residues 93-395) (domain or fragment, S. cerevisiae, UniProt P39107 93-395, looked up)
chain: EGHIAHYDLNKLHSTSEAAVNKEHILILTPMQTFHQQYWDNLLQLNYPRELIELGFITPRTATGDLALKKLENAIKKVQTDKKTQRFSKITILRQNSQSFDKLMEKERHALDVQKERRAAMALARNELLFSTIGPHTSWVLWLDADIIETPPSLIQDMTKHNKAILAANIYQRFYDEEKKQPSIRPYDFNNWQESDTGLEIASQMGDDEIIVEGYAEIATYRPLMAHFYDANGVPGEEMALDGVGGGCTLVKAEVHRDGAMFPNFPFYHLIETEGFAKMAKRLNYDVFGLPNYLVYHIEEENH
modifications: biotinylated with EZ-link NHS-PEG4-Biotin
notes: Mnn9p, S. cerevisiae S288c, lacking the first 92 amino acid residues (cytoplasmic domain, transmembrane domain and predicted disordered region); glycosyltransferase core 93-395; Cloned into pNIFTY/MBP (MBP, hexahistidine, TEV site at the N-terminus); PDB 3ZF8 holds the D236N mutant of the same limits; also called ScMnn9p; M9; source: E. coli BL21(DE3) pLysS, purified (Ni-IMAC, TEV cleavage, anion …)
